Measured values as given in the nanobody polyreactivity screen of Harvey et al. (2022).

Experiment: yeast display, Sf9 membrane polyspecificity reagent, FACS + sequencing; frameworks hold sequencing errors
Summary of the method: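 Using colony PCR, genes from sorted yeast display clones were amplified, then sequenced on MiSeq at 2 × 250 and filtered by CDR length. The clones had been stained with 10% biotinylated, detergent-solubilized Sf9 membrane reagent for 1 hour at 4 °C and sorted by FACS into low and high (top ~1%) gates on anti-HA and streptavidin fluorescence. Polyreactivity labels come from the gate of origin.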

| Sequence | polyreactivity (PSR sort gate) |
| --- | --- |
| QVQLVESGGGLDQAGGSLRLSCAASGSTIHRNAMGWYRQAPGKERELVAAITSGGSTNYADSVKGRFTISRDNAKNTVYLQMNSLKPEDTAVYYCDKDYRHYNRGWYDYWGQGTQVTVSS | low polyreactivity |
| QVQLVESGGGLVQAGGSLRFSCAASGRIFTPYAMGWYRQAPGKERELVAVIRDGSTYYADSVKGRFTISRDNAKNTVYLQMNSLKPEDTAVYYCRYDIWVWWSGAYDYWGQGTQVTVSS | low polyreactivity |
| QDQLVESGGCLVQAGGSLRLSCAASGNIFDTYVMGWYRQAPGKEMELVAAITSDGGTYYADSVKARFTISRDNAKNTVYLQMNSLKPEDTAVYYCAADTYYYPIHDYWGQGTQVTVSS | low polyreactivity |
| QVQLVESGGGLVQAGGSLRLSCAASGSTFNQNAMGWYRQAPGKERELVARITSGGSTYYADSVKGRFTISRDNAKNTVYLQMNSLKPEDTAVYYCAARANPYVLKYYYWGQGTQVTVSS | high polyreactivity |
| QVQLVESGGGLVQAGGSLRLSSAASGRIFRINAMGWYRQAPGKERELVADITSGGSTNYADSVKGRFTISRDNAKNTVYLQMNSLKPEDTAVYYCAAAYVTYRTRLDYWGQGTQVTVSS | low polyreactivity |
| QVQLVESGGGLVQAGGSLRLSCAASGRTFARYAMGSYRQAPGKERELDAAITSGGSTNYADSVKGRFTISRDNAKNTVYLQMNSLKPEDTAVYYCNARRRAPKGPIPAGNYWGQGTQVTVSS | high polyreactivity |
| QVQLVESGGGLVQAGGSLRLSCAASGSIFTLYAMGWYRQAPGKERELVAAITRSGGSTYYADSVKGRFTISRDNAKNTVYLQMNSLKPEDTAVYYCAADKAPYSTEGDYWGQGTQVTVSS | high polyreactivity |
| QVQLVESGGGLVQAGGSLRLSCAASGFIYSYAMGWYRQAPGKERELVAAISRSGGSTYYADSVKGRFTISRDNAKNTVYLQKNSLKPEDTAVYYCAALRRYPRDNIMYYYPYDYWGQGTQVTVSS | high polyreactivity |
| QVQLVETGGGLVQAGGSLRLSCASSGFIFVRYAMGWYRQAPGKERELVAAITKGGGRTYYADSVKGRFTISRDNAKNTVYLQMNSLKPEDTAVYYCATAGAHGRERDYWGQGTQVTVSS | high polyreactivity |
| QVQHVESGGGLVQEGGSLRLSCAASGITFGRNTMGWYRQAPGKERELVAAIDSGGNTYADSVKGRFTISRDNAKNTVYLQMNSLKPVDTAVYSCAVDGGEFSSYGYWGQGTQVTVSS | low polyreactivity |
| QVQLLESGGGLVQAGGSLRLSCAPSGSTIAWYAMGWYIHAPGKERELVAAITQSGGSTYYADSVKGRFTISRDNEKNTVYLLMIRLKPEDTAVYYCAAYPGYAKYRYDFWGPGTQVTVSS | high polyreactivity |
| QVQLVESGGGLVQAGGSLRLSCSASGITFLHYAMGWYIQAPGKERELVARITYSGSSTYYADSVKGRFTISRDNAKNTVYLQMNSLKPEDTAVYYCNASASWGRWSRTGTPRYYYWGQGTQVTVSS | high polyreactivity |
| QVQLVESGGGLVQAGGSLRLSCAASGSTFAVYAMGWYRQAPGKERELVAVISRGANTNYADSVKGRFTISRDNAKNTVYLQMNSLKPEDTAVYYCAAPSYFTHRGRFDYWGQGTQVTVSS | low polyreactivity |
| QVQLVESGGGLVQAGGSLRLSCAASGRTFWYYTMGWYRQAPGKERELVAAITRRGGSTYYADSVKGRFTISRDNAKNTVYLQMNSLKPEDTAVYYCARGGSRLTQGWLVTPYDYDYWGQGTQVTVSS | high polyreactivity |
| QVQLVESGGGLVQAGGSLRLSCAASGFTFYRYAMGWYRQAPGKERELVAAISRSGGSTSYADSVKGRFTISRDNAKNTLYLQMNSLTPEDTEVYYCATRNWYSLKDYYYWGQGTQVTVSS | high polyreactivity |
| QVQLVESGGGLVQAGGSLRLSCAASGRIFKNYAMGWYRQAPGKERELVAAITWSGGRTYYADSVKGRFTISRDNAKNTVYLQMNSLKPEDTAVYYCATAARRGPTSIEPFGYGSWGQGTQVTVSS | high polyreactivity |
| QVQLVESGGGLVQAGGSLRLSCAASGSIFSYYAMGWYRQATAKERDLVAAISTSCGNTYYADSVKGRFTISRDNPKNRVYVQMNSLKPEDTAVYYCAAENVWAWFYGYDYWGQGTQVTVSS | high polyreactivity |
| QVQLVESGGGLVQAGGSLRLSCAASGFTFARYAMGWYRQAPGKERELVAAISSRGGRTYYADSVKGRFTISRDNAKNTVYLQMNSLKPEDTAVYYCNAGYAHTYDYWGQGTQVTVSS | high polyreactivity |
| QVQLVESGGGLVQAGGSLRLSCAAYGGTFPAYTMGWYRQAPGKERELVAAITWSGGNTYYADSVKGRFTISRDNAKNTVYLQMNSLKPQDTAVYYCAAEYWQYQWSVRIDYEYWGQGTQVNVSS | high polyreactivity |
| QVQLVESGGGLVQAGGSLRLSCAASGFIVRYNAMGWYRQAPGKERELVAVITDSSDSTYYADSVKGRFTISRDNAKNTVYLQMNSLKPVDTAVYYCDTDYGYAGDYWGQGSQVTVSS | low polyreactivity |
| QVQLVESGGGLVQAGGSLRLSCAASGGTFRYYAMGWYRQAPGKEREFVAAITSSGGSTYYADSVKGRFTISRDNAKKTVYLQMNRLKPEDTAGYYCATDNPFLWWFRPDQHGMGYWGQGTQVTVSS | low polyreactivity |
| QVQLVESGGGLVQAGGSLRLSCAASGRIFWVYAMGWYRQAPGKEREFVADITWTGGSTYYADSVKGRFTISRDNAKNTVYLQMNSLKPEDTAVYYCAADSWSNYDYWGQGTQVTVSS | high polyreactivity |

| Sequence | polyreactivity (PSR sort gate) |
| --- | --- |
| QVHLVESVGGLVQAGGSLRLSCAASGIIFNDYAMGWYRQAPGKERELVATISWSGGSTYADSVKGRFTISRDNAKNTVYLQMNSLNPEDTAVYYCNADLGSSYDWGQGTQGTVSS | low polyreactivity |
| QVQLVESGGGLVQAGGSLRLSCAASGITFPYYAMGWYRQAPGKERELVAAISSSGGSTYYADSVKGRFTISRDNAKNTVYLQMNSLKPEDTAVYYCAAQRYINYDYWGQGTQVTVSS | high polyreactivity |
| QVQLVESGGGLGQAGGSLRLSSAASGRTVSTNDMGWYRHAPGKERELVAAIDFDSDSTYYADSVKGRFTISRDNAKNTVYLQMHSLKPEDTAVYYCAAQYFSYGESYEYWGQGTHVTVSS | low polyreactivity |
| QVQLVESGGGLVQAGGSLRLSCAASGSTFGYYAMGWYRQAPGKERELVAVITRSGDRTYYADSVKGRFTISRDNAKNTVYLQMNSLKPEDTGVYYCAARATSAGGVAEYYWGQGTQVTVSS | high polyreactivity |
| QVQLVESGGGLVQAGGSLRLSCAASGSTFDKYAMGWYRQAPGKDRELVAAITWGGGSTYYADSVKGRFTISRDNAKNTVYLQMNSLKPEDTAVYYCAAEQGSSVLYDSWGQGTQVTVSS | low polyreactivity |
| QVQLVESGGGLVQAGGSLRLSCAASGSIFKFYAMGWYRQAPGKEREMVAVITYIGGSTYYADSVKGRFTISRDNAKNTVYLQMNSLKPEDTAVYYCNKDGAFHWVGSDPVYLFEYWGQGTQVTVSS | low polyreactivity |
| QVQLVESGGGLVQAGGSLRLSCAASGIIFRYYAMGWYIQAPGKERELVARITSGARTTYADSVKGRFTISRDNAKNTVYLQMNSLKPEDSAVYYCNAVRRYGLEYNYWGQGTQVTVSS | high polyreactivity |
| QVQLVESGGGLVQAGGSLRLSCAASGSTLYYYAMGWYRQAPGTERELGAAITWSGDSTYYADSVKGRFTISRDNAKNTVYLQMNSLKPEDTAVYYCAAEVESYDPYYTYDYWGQGTQVTVSS | high polyreactivity |
| QDQLVESGAGLVQAGGSLRLSCAASGRTFAYNAMGWYRQAPGKERELVASITSGGSTNYADSVKGRFTISRDNAKNTVYLQMNCLKPEDTAVYYCNKDGKYHRVLYDYWGQGTQVTVSS | low polyreactivity |
| QVQLVESGGGLVQAGGSLRLSCAASARTFYYNGMGWYIQAPGKERELVAASSGGGSSTSYADSVKGRFTISRDNAKNTVYLQMNSLKPEDTAVYYCAAKYGALRYYKMYYWGQGTQVTVSS | low polyreactivity |
| QVQHVESGGGLVQAGGSLRLSCAASGRIFNRYAMVWYRQAPGKERELVAAISASGDNTYYADSVKGRFTISRDNAKNTVYLQMISLKPEDTAVFYCAARYYTYLHFSMYYWGQGTQVTVSS | high polyreactivity |
| QVQLVESGGGKVQAGGSLRLICAASGSTFSSYAMGWYRQAPGKERELVAGISRGGSSTDYADSVKGRFTISRDNAKNTVYLQMNSLKPEDPAVYYCNAKVWWSFNGLEYDYWGQGTQVTVSS | low polyreactivity |
| QVQLVESGGGLVQAGGSLRLSCAASGIIFGSYAMGWYRQAPGKERELVAGISRRGDSTYYADSVKGRFTISRDNAKNTVYLQMNSLNPEDTAVYYCAADRYLYFYWWPHVGGSPTYGYWGQGTQVTVSS | high polyreactivity |
| QVQLVDSGGGLVQAGGSLRLSCAASGRTSYYNTMGWYRQAPGKERELVAAITGRGDSTYYADSVKGRFTISRDNAKNTVYLQMNSLKPEDTAVYYCAADELHLLYRVSKFVDYNHWGQGTQVTVSS | low polyreactivity |
| QVQLVESGGGLVQAGGSLRLSCAASGSIGYYVMGWYRQAPGKERELVAVITFGGASTYYADSVKGRFTISRDNAKNTVYLQMNSLKPEDTAVYYCARYQHRLVYGYGYWGQGTQVTVSS | low polyreactivity |
| QVQLVESVGGLVQAGGSLRLSCAASGSIFSVNAMGWYRQAPGKERELVASINFRGGRTYYADSVKGRFTISRDNAKNTVYLQMNSLKPEDTAVYYCAAVITQTDTGYGPSFRVYYWGQGTQVTVSS | high polyreactivity |
| QVQLVESGGGLVQAGGSLRLSCAASGSIFGANTMGWYRQAPGKERELVAGITSGARTYYADSVKGRFTISRDNAKNTVYLQMNSLKPEDTAVYYCAAKYAWRRYGYWGQGTQVTVSS | high polyreactivity |
| QVQLVESGGGLVQAGGSLRLSCAASGSTFYTNAMGWYRQAPGKERELVAAISGSGGSTYYADSVKGRFTISRDNAKNTVYLQMNSLKPEDTAVYYCAARSRYYDTRFDYWGQGTQVTVSS | low polyreactivity |
| QVQLVESGGGIVQAGGSLRLSCSASGRNSGVNAMGSYRQAPGKERELVATISGSGGRTYYADSVKERFTISRDNAKNTVYLQMNSLKPEDTAVYYCNTLVQRGGYFSRGFDYWGQGTQVTVSS | low polyreactivity |
| QVQLVESGGGLVQAGGSLRLSCAASGSIFNRYTMGWYRQAPGKETELVAAISRGDTTYYADSVKGRFTISRDNAKNTVYLEMNSLKPEDTAVYYWAKAYDTTLTYNYWGQVTQVTVSS | low polyreactivity |
| QVQLVESGGGLVQAGGSLRLSCAASGSIFFQNAMGWYRQAPGKERELVATITSSVGSTYYADSVKGRFTISRDNAKNTVYFQMNSLKPEDTAVYYCNVRFFSAALWYTYFGYDYWGQGTQVTVSS | low polyreactivity |
